Among the data in PMC2572730, “Structural Basis for the Recognition of Histone H4 by the Histone-Chaperone RbAp46” (Structure(London, England:1993), 2008) are stoichiometry N values, retold here.

For this experiment, the target named is histone H3 (Xenopus laevis, recombinant full length) (Xenopus laevis) (UniProt P84233). In words: cross-linking; BS3 crosslinker in 1.1 M NaCl, 20 mM HEPES (pH 7.5), 10 mM DTT; ~10 uM RbAp46, H3/H4 or RbAp46/H3/H4; room temperature, 30 min; NuPAGE, Coomassie and blots with anti-H3 and anti-H4.

With “histone H3 (Xenopus laevis, recombinant full length) (from UniProt P84233 1-136) (natural protein)”, the stoichiometry N (usually a count of units in the complex or per binding partner) stood at 2.
